Columns and labels:
[1] = target: SARS-CoV-2 S protein S1 subunit (amino acids 1-604), Myc/His tagged (SARS-CoV-2, UniProt P0DTC2 14-604)
[2] = target: SARS-CoV-2 spike (S) protein on virus or pseudovirus particles (SARS-CoV-2, UniProt P0DTC2 14-1273); assay: cell-based or functional assay
[3] = target: SARS-CoV S protein RBD (amino acids 270-510) (SARS-CoV (Urbani strain), UniProt P59594 270-510)
[4] = target: SARS-CoV-2 S protein RBD (amino acids 319-541) (SARS-CoV-2, UniProt P0DTC2 319-541)

Binder | EC50 [1] [nM] | plaque reduction neutralization test (PRNT), EC50 [2] [µg/mL] | Kd [3] [nM] | Kd [4] [nM] | neutralization of SARS-CoV-2 pseudovirus, IC50 [2] [µg/mL]
MAb362 (antibody, V domains shown) VH: QVQLVESGGGVVQPGRSLRLSCAASGFSFSSYGMHWVRQAPGKGLEWVAVIWYDGSDKYYADSVKGRFTISRDNSKNTLYLQLNSLRAEDTAIYYCARERYFDWIFDFWGQGTLVTVSS VL: not shown | ~40 | ~5 |  |  | 
MAb362 IgA1 (monomeric) (antibody, V domains shown) VH: QVQLVESGGGVVQPGRSLRLSCAASGFSFSSYGMHWVRQAPGKGLEWVAVIWYDGSDKYYADSVKGRFTISRDNSKNTLYLQLNSLRAEDTAIYYCARERYFDWIFDFWGQGTLVTVSS VL: not shown |  |  | 1.4 | 0.3 | 1.26
MAb362 IgG1 (antibody, V domains shown) VH: QVQLVESGGGVVQPGRSLRLSCAASGFSFSSYGMHWVRQAPGKGLEWVAVIWYDGSDKYYADSVKGRFTISRDNSKNTLYLQLNSLRAEDTAIYYCARERYFDWIFDFWGQGTLVTVSS VL: not shown |  |  | 1.3 | 13 | 58.7
